In data set [1] the target is T1, Dps (Escherichia coli, UniProt P0ABT2 1-167). As to the kind of experiment: EMSA; 2-fold Dps excess: triplex significantly reduced; EMSA: 50 mM Tris-HCl pH 7.5, 0.1 mM EDTA, 50 mM NaCl, 37°C 30 min; footprinting: 50 mM Tris-HCl pH 8.0, 0.1 mM EDTA, 0.1 mM DTT, 10 mM MgCl2, 50 mM NaCl, 5 mg/m. For orientation: In EMSA bound probe runs differently from free probe, usually more slowly.

In data set [2] the target is T1, Dps. As to the kind of experiment: AFM; bound protein slightly shifted from center; EMSA: 50 mM Tris-HCl pH 7.5, 0.1 mM EDTA, 50 mM NaCl, 37°C 30 min; footprinting: 50 mM Tris-HCl pH 8.0, 0.1 mM EDTA, 0.1 mM DTT, 10 mM MgCl2, 50 mM NaCl, 5 mg/m.

B1: Y5_Y6_Y7 (structured_DNA)
DNA 1: CTTTTCCTCTACACCGTCTTTATATATCGAATTAAGAAGTCGCAATGAGTATTACTTTGTAAAT
DNA 2: CAAGGGTAAACGAACCTTGCGCTTTCTTAAATATTCGATATATAAAGACGGTGTAGAGGAAAAG
DNA 3: ATTTACAAAGTAATACTCATTGCGACTTCTTAATTTAAGAAAGCGCAAGGTTCGTTTACCCTTG
Regarding B1, the binding result with Dps [1] is listed as “binds”.

B2: Y5_Y6_Y8 (structured_DNA)
DNA 1: CTTTTCCTCTACACCGTCTTTATATATCGAATTAAGAAGTCGCAATGAGTATTACTTTGTAAAT
DNA 2: CAAGGGTAAACGAACCTTGCGCTTTCTTAAATATTCGATATATAAAGACGGTGTAGAGGAAAAG
DNA 3: ATTTACAAAGTAATACTCATTGCGACTTCTTAATTTAAGAAAGCGCAAGGAACGTTTACCCTTG
As for B2, in the data set with Dps [2], the binding result is “binds”.

The record behind these values is PMC4433220.
